One block for each substance: values may come before it.
Legend:
Histone H1.0 (human) [1] = target: Histone H1.0 (human) (UniProt P07305); assay: FRET; details: FRET/PIFE/EMSA: 5 nM nucleosomes, 10 mM Tris-HCl pH 8.0, 130 mM NaCl, 10% glycerol, 0.005% Tween20, 10 min at 20 C, EMSA on 4% polyacrylamide, 0.3x TTE
Histone H1.0 (human) [2] = target: Histone H1.0 (human) (UniProt P07305); assay: PIFE; details: AmC6dT at position 43; unlabelled human octamer; FRET/PIFE/EMSA: 5 nM nucleosomes, 10 mM Tris-HCl pH 8.0, 130 mM NaCl, 10% glycerol, 0.005% Tween20, 10 min at 20 C; EMSA on 4% polyacrylamide, 0.3x TTE
Histone H1.2 (human) = Histone H1.2 (human) (UniProt P16403); assay: FRET; details: AmC6dT at position 43; human octamer H2A(K119C), H2B, H3(C110A), H4; FRET/PIFE/EMSA: 5 nM nucleosomes, 10 mM Tris-HCl pH 8.0, 130 mM NaCl, 10% glycerol, 0.005% Tween20, 10 min at 20 C; EMSA on 4% polyacrylamide, 0.3x TTE
Histone H1.x (human) = Histone H1.x (human) (UniProt Q92522); assay: FRET; details: AmC6dT at position 43; human octamer H2A(K119C), H2B, H3(C110A), H4; FRET/PIFE/EMSA: 5 nM nucleosomes, 10 mM Tris-HCl pH 8.0, 130 mM NaCl, 10% glycerol, 0.005% Tween20, 10 min at 20 C; EMSA on 4% polyacrylamide, 0.3x TTE
[3] = target: Cy3 only labelled unmodified nucleosome (Cy3-L DNA, unlabelled histone octamer) (human) (UniProt P0C0S8); assay: other fluorescence titration; PIFE (protein-induced fluorescence enhancement) of Cy3 on the linker DNA of Cy3 only nucleosomes; 5 nM nucleosomes, 0-300 nM H1 and/or 0-1,000 nM Gal4, 10 mM Tris-HCl pH 8.0, 130 mM NaCl, 10% glycerol, 0.005% TWEEN20, 10 min at 20 C; Hill curve, S1/2
[4] = target: Cy3-Cy5 labelled H3K122ac nucleosome (Cy3-L DNA) (UniProt P0C0S8); assay: other fluorescence titration; FRET efficiency between Cy3 on the DNA and Cy5 on the histone octamer (reports DNA wrapping) against H1 concentration; 5 nM nucleosomes, 0-300 nM H1, 10 mM Tris-HCl pH 8.0, 130 mM NaCl, 10% glycerol, 0.005% TWEEN20, 10 min at 20 C; Hill curve, S1/2; points of aggregated nucleosomes excluded
[5] = target: Cy3-Cy5 labelled H3K56Q nucleosome (Cy3-L DNA) (human) (UniProt P0C0S8); assay: as above
[6] = target: Cy3-Cy5 labelled H3K56ac nucleosome (Cy3-L DNA) (UniProt P0C0S8); assay: as above
[7] = target: Cy3-Cy5 labelled unmodified nucleosome (Cy3-L DNA, Cy5 on H2A K119C) (human) (UniProt P0C0S8); assay: as above

Substance: AAGCTTGTCGACGAATTCAGATATAAGGAGGACACTGGGACATGCATCGGCTGGAGACCGGAGGGCTGCCCTCCGGTCAATTGGTCGTAGACAGCTCTAGCACCGCTTAAACGCACGTACGCGCTGTCCCCCGCGTTTTAACCGCCAAGGGGATTACTCCCTAGTCTCCAGGCACGTGTCAGATATATACATCCTGT (double strand) [Linker-L nucleosome]
K half (Histone H1.0 (human) [1]; AmC6dT at position 43, human octamer): 12 nM

Substance: AAGCTTGTCGACGAATTCAGATATAAGGAGGACACTGGGACATGCATCGGCTGGAGACCGGAGGGCTGCCCTCCGGTCAATTGGTCGTAGACAGCTCTAGCACCGCTTAAACGCACGTACGCGCTGTCCCCCGCGTTTTAACCGCCAAGGGGATTACTCCCTAGTCTCCAGGCACGTGTCAGATATATACATCCTGTATAATGCATAGGGCAGTGAGTTGACGCTACAATCACGAATTCTGGATCCGATACGTAACGCGTCTGCAGCATGCG (double strand) [Cy3-L nucleosome, unmodified, Cy3 only]
K half (Histone H1.0 (human) [2]): 13 nM

Substance: AAGCTTGTCGACGAATTCAGATATAAGGAGGACACTGGGACATGCATCGGCTGGAGACCGGAGGGCTGCCCTCCGGTCAATTGGTCGTAGACAGCTCTAGCACCGCTTAAACGCACGTACGCGCTGTCCCCCGCGTTTTAACCGCCAAGGGGATTACTCCCTAGTCTCCAGGCACGTGTCAGATATATACATCCTGTATAATGCATAGGGCAGTGAGTTGACGCTACAATCACGAATTCTGGATCCGATACGTAACGCGTCTGCAGCATGCG (double strand) [Cy3-L nucleosome, unmodified, Cy5-H2A(K119C)]
K half (Histone H1.0 (human) [1]; AmC6dT at position 43, human octamer H2A(K119C), H2B, H3(C110A), H4): 9 nM
K half (Histone H1.2 (human)): 6 nM
K half (Histone H1.x (human)): 13 nM

Substance: CTGGAGACCGGAGGGCTGCCCTCCGGTCAATTGGTCGTAGACAGCTCTAGCACCGCTTAAACGCACGTACGCGCTGTCCCCCGCGTTTTAACCGCCAAGGGGATTACTCCCTAGTCTCCAGGCACGTGTCAGATATATACATCCTGTATAATGCATAGGGCAGTGAGTTGACGCTACAATCACGAATTCTGGATCCGATACGTAACGCGTCTGCAGCATGCG (double strand) [Linker-R nucleosome]
K half (Histone H1.0 (human) [1]; smaller FRET change, 5' AminoC6, human octamer): 11 nM

S1/2 [3]: 13 nM
S1/2 [4]: 14 nM
S1/2 [5]: 15 nM
S1/2 [6]: 14 nM
S1/2 [7]: 9 nM
Substance: human linker histone H1.0 (from UniProt P07305 1-194) (natural protein)

S1/2 [7]: 6 nM
Substance: human linker histone H1.2, 6xHis tagged (from UniProt P16403 1-213) (natural protein)

S1/2 [7]: 13 nM
Substance: human linker histone H1.x, 6xHis tagged (from UniProt Q92522 1-213) (natural protein)

— PMC4682114
